From patent US20060067886A1, “Gastrin receptor-avid peptide conjugates” (priority 1997, published 2006)

Test: Biodistribution of radiometal-DOTA-BBN conjugates in CF1 normal mice
Conditions: 1 hour post-injection; for tissue uptake at 1 h: Avg % ID/gm

| Structure (SMILES) | Avg % ID, Blood [% ID] | Avg % ID, Carcass [% ID] | Avg % ID, Heart [% ID] | Avg % ID, Kidney [% ID] | Avg % ID, L. Intestine [% ID] | Avg % ID, Liver [% ID] | Avg % ID, Lung [% ID] | Avg % ID, Muscle [% ID] | Avg % ID, Pancreas [% ID] | Avg % ID, S. Intestine [% ID] | Avg % ID, Spleen [% ID] | Avg % ID, Stomach [% ID] | Avg % ID/gm, Blood [% ID/gm] | Avg % ID/gm, Heart [% ID/gm] | Avg % ID/gm, Kidney [% ID/gm] | Avg % ID/gm, Liver [% ID/gm] | Avg % ID/gm, Muscle [% ID/gm] | Avg % ID/gm, S. Intestine [% ID/gm] | Avg % ID/gm, Spleen [% ID/gm] | Avg % ID/gm, Stomach [% ID/gm] | other results |
| --- | --- | --- | --- | --- | --- | --- | --- | --- | --- | --- | --- | --- | --- | --- | --- | --- | --- | --- | --- | --- | --- |
| CSCC[C@H](NC(=O)[C@H](CC(C)C)NC(=O)[C@H](Cc1cnc[nH]1)NC(=O)CNC(=O)[C@@H](NC(=O)[C@H](C)NC(=O)[C@H](Cc1c[nH]c2ccccc12)NC(=O)[C@H](CCC(N)=O)NC(=O)CN1CCN(CC(=O)O)CCN(CC(=O)O)CCN(CC(=O)O)CC1)C(C)C)C(N)=O [149Pm-DOTA-0-BBN[7-14]NH2] | 0.00 ± 0.00 | 1.98 ± 2.27 | 0.00 ± 0.00 | 0.34 ± 0.28 | 0.01 ± 0.02 | 0.16 ± 0.15 | 0.00 ± 0.00 | 0.00 ± 0.00 | 0.07 ± 0.01 | 0.38 ± 0.25 | 0.00 ± 0.00 | 0.02 ± 0.05 | 0.00 ± 0.00 | 0.00 ± 0.00 | 1.04 ± 0.90 | 0.12 ± 0.10 | 0.00 ± 0.00 | 0.27 ± 0.17 | 0.00 ± 0.00 | 0.04 ± 0.08 | Avg % ID/gm, L. Intestine: 0.01 ± 0.03 % ID/gm; Avg % ID/gm, Lung: 0.00 ± 0.00 % ID/gm; Avg % ID/gm, Pancreas: 0.00 ± 0.00 % ID/gm |
| CSCC[C@H](NC(=O)[C@H](CC(C)C)NC(=O)[C@H](Cc1cnc[nH]1)NC(=O)CNC(=O)[C@@H](NC(=O)[C@H](C)NC(=O)[C@H](Cc1c[nH]c2ccccc12)NC(=O)[C@H](CCC(N)=O)NC(=O)CCNC(=O)CN1CCN(CC(=O)O)CCN(CC(=O)O)CCN(CC(=O)O)CC1)C(C)C)C(N)=O [177Lu-DOTA-β-Ala-BBN[7-14]NH2] [metal not drawn] | 0.24 ± 0.25 | 2.73 ± 1.08 | 0.05 ± 0.08 | 0.63 ± 0.14 | 0.36 ± 0.17 | 0.21 ± 0.09 | 0.04 ± 0.06 | 0.11 ± 0.18 | 0.32 ± 0.07 | 0.64 ± 0.20 | 0.05 ± 0.04 | 0.13 ± 0.09 | 0.16 ± 0.17 | 0.43 ± 0.70 | 1.88 ± 0.37 | 0.15 ± 0.06 | 0.94 ± 1.54 | 0.49 ± 0.10 | 0.31 ± 0.31 | 0.34 ± 0.18 | Avg % ID/gm, L. Intestine: 0.45 ± 0.19 % ID/gm; Avg % ID/gm, Lung: 0.23 ± 0.33 % ID/gm; Avg % ID/gm, Pancreas: 1.44 ± 0.26 % ID/gm |
| CSCC[C@H](NC(=O)[C@H](CC(C)C)NC(=O)[C@H](Cc1c[nH]cn1)NC(=O)CNC(=O)[C@@H](NC(=O)[C@H](C)NC(=O)[C@H](Cc1c[nH]c2ccccc12)NC(=O)[C@H](CCC(N)=O)NC(=O)CCCCNC(=O)CN1CCN(CC(=O)O)CCN(CC(=O)O)CCN(CC(=O)O)CC1)C(C)C)C(N)=O [111In-DOTA-5-Ava-BBN[7-14]NH2] [metal not drawn] | – | 3.15 ± 0.70 | 0.02 ± 0.01 | – | – | 0.26 ± 0.03 | 0.04 ± 0.01 | 0.01 ± 0.01 | – | 0.11 ± 0.04 | 0.11 ± 0.04 | 0.37 ± 0.16 | – | 0.10 ± 0.04 | – | 0.16 ± 0.02 | 0.05 ± 0.02 | 3.49 ± 0.87 | 0.87 ± 0.28 | 0.71 ± 0.24 | – |
| CSCC[C@H](NC(=O)[C@H](CC(C)C)NC(=O)[C@H](Cc1cnc[nH]1)NC(=O)CNC(=O)[C@@H](NC(=O)[C@H](C)NC(=O)[C@H](Cc1c[nH]c2ccccc12)NC(=O)[C@H](CCC(N)=O)NC(=O)CN1CCN(CC(=O)O)CCN(CC(=O)O)CCN(CC(=O)O)CC1)C(C)C)C(N)=O [111In-DOTA-0-BBN[7-14]NH2] [metal not drawn] | – | 1.78 ± 0.37 | – | – | 0.10 ± 0.02 | – | – | – | – | 0.25 ± 0.04 | – | – | 0.10 ± 0.03 | – | – | – | 0.03 ± 0.02 | 0.44 ± 0.64 | – | 0.06 ± 0.03 | – |
| CSCC[C@H](NC(=O)[C@H](CC(C)C)NC(=O)[C@H](Cc1cnc[nH]1)NC(=O)CNC(=O)[C@@H](NC(=O)[C@H](C)NC(=O)[C@H](Cc1c[nH]c2ccccc12)NC(=O)[C@H](CCC(N)=O)NC(=O)CN1CCN(CC(=O)O)CCN(CC(=O)O)CCN(CC(=O)O)CC1)C(C)C)C(N)=O [177Lu-DOTA-0-BBN[7-14]NH2] [metal not drawn] | 0.39 ± 0.34 | 4.34 ± 2.64 | 0.01 ± 0.02 | 0.58 ± 0.10 | 0.09 ± 0.12 | 0.19 ± 0.10 | 0.04 ± 0.06 | 0.02 ± 0.03 | 0.06 ± 0.10 | 1.27 ± 1.03 | 0.01 ± 0.01 | 0.05 ± 0.11 | 0.58 ± 0.96 | 0.04 ± 0.09 | 1.21 ± 0.31 | 0.09 ± 0.06 | 0.09 ± 0.15 | 0.75 ± 0.60 | 0.04 ± 0.09 | 0.10 ± 0.21 | Avg % ID/gm, L. Intestine: 0.07 ± 0.09 % ID/gm; Avg % ID/gm, Lung: 0.19 ± 0.26 % ID/gm; Avg % ID/gm, Pancreas: 0.18 ± 0.28 % ID/gm |
| CSCC[C@H](NC(=O)[C@H](CC(C)C)NC(=O)[C@H](Cc1cnc[nH]1)NC(=O)CNC(=O)[C@@H](NC(=O)[C@H](C)NC(=O)[C@H](Cc1c[nH]c2ccccc12)NC(=O)[C@H](CCC(N)=O)NC(=O)CCNC(=O)CN1CCN(CC(=O)O)CCN(CC(=O)O)CCN(CC(=O)O)CC1)C(C)C)C(N)=O [111In-DOTA-β-Ala-BBN[7-14]NH2, metal not drawn] | – | – | – | – | – | – | – | – | – | – | – | – | – | – | – | – | – | – | – | – | tissue uptake dose at 1 h (CF-1, mouse, in vivo, iv, total radioactivity, Avg % ID, Blood): 0.23 ± 0.1 %ID; tissue uptake dose at 1 h (CF-1, mouse, in vivo, iv, total radioactivity, Avg % ID, Carcass): 2.23 ± 0.36 %ID; tissue uptake dose at 1 h (CF-1, mouse, in vivo, iv, total radioactivity, Avg % ID, Kidney): 0.62 ± 0.1 %ID; tissue uptake dose at 1 h (CF-1, mouse, in vivo, iv, total radioactivity, Avg % ID, Liver): 0.17 ± 0.03 %ID; tissue uptake dose at 1 h (CF-1, mouse, in vivo, iv, total radioactivity, Avg % ID, Lung): 0.03 ± 0.02 %ID; tissue uptake dose at 1 h (CF-1, mouse, in vivo, iv, total radioactivity, Avg % ID, Stomach): 0.13 ± 0.02 %ID; dose excreted at 1 h (CF-1, mouse, in vivo, iv, total radioactivity, Avg % ID, Urine): 92.41 ± 0.9%; tissue uptake at 1 h (CF-1, mouse, in vivo, iv, total radioactivity, Blood): 0.11 ± 0.06 %ID/g; tissue uptake at 1 h (CF-1, mouse, in vivo, iv, total radioactivity, Kidney): 1.4 ± 0.27 %ID/g; tissue uptake at 1 h (CF-1, mouse, in vivo, iv, total radioactivity, Liver): 0.11 ± 0.02 %ID/g; tissue uptake at 1 h (CF-1, mouse, in vivo, iv, total radioactivity, Stomach): 0.3 ± 0.07 %ID/g |
